Experimental data: paper PMC12002313 (Proceedings of the National Academy of Sciences of the …, 2025)
Numbering of substitutions follows the chain as printed. Numbers in names are those of the source.

Key:
[1] = target: PTg (genetically detoxified pertussis toxin) (Bordetella pertussis, UniProt P04978+P04979); format: binding
[2] = target: pertussis toxin (PT), enzymatically active holotoxin (Bordetella pertussis, strain of bought …, UniProt P04977;P04978;P04979;P0A3R5;P04981); assay: ELISA
[3] = target: pertussis toxin S5 subunit, as it stands in PTg (Bordetella pertussis, UniProt P04981); assay: cryo-EM structure
[4] = target: pertussis toxin S3 subunit, as it stands in PTg (Bordetella pertussis, UniProt P04979); assay: cryo-EM structure
[5] = target: pertussis toxin S2 subunit, as it stands in PTg (Bordetella pertussis, UniProt P04978); assay: cryo-EM structure

For `CC(=O)N[C@H]1[C@H]([C@H](O)[C@H](O)CO)O[C@@](O[C@H]2[C@@H](O)[C@@H](CO)O[C@@H](O[C@H]3[C@H](O[C@@H]4O[C@@H](C)[C@@H](O)[C@@H](O)[C@@H]4O)[C@@H](NC(C)=O)C(O)O[C@@H]3CO)[C@@H]2O)(C(=O)O)C[C@@H]1O` (stereo partly drawn) [sialyl Lewis^X blood group antigen, Neu5Acα2-3Galβ1-4(Fucα1-3)GlcNAc], the RFU [1] was “PTg alone binds to sialylated N-glycans, asialo-N-glycans, and other carbohydrates (such as the sialyl Lewis^X”.

B1: hu1B7mut IgG (hu1B7 HC S56A, Q61A, Q64A) (antibody, V domains shown)
VH: QVQLVQSGAEVKKPGASVKVSCKASGYKFTSYWMHWVRQAPGQGLEWIGNIFPGSGATNYAAKFAGRVTLTVDTSTSTAYMELSSLRSEDTAVYYCTRWLSGAYFDYWGQGTTVTVSS
VL: QIVLTQSPATLSVSPGERVTLTCSASSSVSFMYWYQQKPGRAPKPLIYLTSNLPSGVPARFSGSGSGTSYTLTINSLEAEDAATYYCQQWSSHPPTFGSGTKLEIK
B1: binds [2].

B2: hu1B7 Fab (Fab, V domains shown)
VH: B1 VH with A57S, A62Q, A65Q
VL: B1 VL
B2: binds [3].

B3: hu1B7 IgG (antibody, V domains shown)
VH: B1 VH with A57S, A62Q, A65Q
VL: B1 VL
B3: binds [2].

B4: hu11E6 Fab (Fab, V domains shown)
VH: EVQVVESGGGLVQPGRSLRLSCTTSGFTFTDYYVSWVRQAPGKALEWLGFIRNKVNGYTTEFSSSVKGRFTISRDNSKSILYLQMNSLKIEDTAVYYCARVSYYGRGWYFDYWGQGTTLTVSS
VL: DIVMTQSPSSLSASVGDRVTISCRASQDIDNYLSWFQQKPGGTVKLLIYYTSRLHSGVPSRFSGSGSGTDYTLTISSLQPEDIATYFCQQGNTFPWTFGGGTKLEIK
B4: binds [4]; binds [5].
